{"source": "paper PMC5862951", "biological_target": "His6-tagged rat SLFN13 N′-domain, residues 14–353 (crystallised rSLFN13_(14–353)) (rat) (UniProt Q5U311)", "experiment": "right-angle light scattering (RALS) of eluted protein; purified protein in solution; elution with RALS detection; conditions not shown (Supplementary Fig. 2a)"}
{"substance": "His6-tagged rat SLFN13 N′-domain, residues 14–353 (crystallised rSLFN13_(14–353)) (from UniProt Q5U311 14-353) (domain or fragment)", "values": [{"measurement": "stoichiometry N", "result": 2}]}
